Data from WO1999010379A1 (dated 1999).

Tests used:
[1] = biological target: T1, monoclonal antibody SM3 (secreted by the hybridoma HSM3, ECACC accession no. 87010701); assay: inhibition ELISA: SM3 at 1 ug/ml incubated with increasing peptide, binding to the fusion protein with seven MUC1 tandem repeats
T1 construct: The general ELISA method detects it with goat anti-mouse (Fc specific) conjugate; also called SM3 antibody

[2] = biological target: T1, monoclonal antibody SM3 (secreted by …); assay: inhibition ELISA of SM3 (1 ug/ml) binding to the fusion protein with seven MUC1 tandem repeats

T1 sequence (VH, as listed by the source limits assumed, chain 1 of 2): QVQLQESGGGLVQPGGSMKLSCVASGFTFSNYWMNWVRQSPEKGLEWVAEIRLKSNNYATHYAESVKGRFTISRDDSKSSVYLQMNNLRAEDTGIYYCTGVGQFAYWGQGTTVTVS
T1 sequence (VL, as listed by the source limits assumed, chain 2 of 2): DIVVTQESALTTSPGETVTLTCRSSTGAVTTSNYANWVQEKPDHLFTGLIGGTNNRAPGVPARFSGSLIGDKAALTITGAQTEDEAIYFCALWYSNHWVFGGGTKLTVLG

Apparent Ka [1]	IC50 [1]	Binder	binding result [2]
~24 µM	~30 µg/mL	TSAPDTRPAPGST (Non-glycosylated peptide; also called MUCl peptide; MUCl peptide antigen) [MUC1 peptide Thr-Ser-Ala-Pro-Asp-Thr-Arg-Pro-Ala-Pro-Gly-Ser-Thr ("the crystal peptide")]	–
–	–	ARPTGTSDPTPAS	no binding (tested: approximately 30μg/ml)
